Residue numbers refer to the chain shown, from its start. In names and notes the source's numbering stands.
T1: human CD123 SP2 ECD displayed on pDisplay-transfected cells (human, UniProt P26951 101-305)
T1 construct: ECD anchored on the surface of stably transfected HEK293 cells; also called hCD123 SP2 cells; pDisplay CD123SP2
T1 sequence: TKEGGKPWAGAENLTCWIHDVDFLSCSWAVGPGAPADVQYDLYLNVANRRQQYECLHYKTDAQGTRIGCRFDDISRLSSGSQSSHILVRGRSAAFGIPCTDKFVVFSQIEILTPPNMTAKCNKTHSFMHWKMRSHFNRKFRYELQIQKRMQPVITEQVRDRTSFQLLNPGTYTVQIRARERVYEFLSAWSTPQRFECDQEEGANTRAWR

T2: cyno CD123 ECD displayed on pDisplay-transfected cells (cynomolgus monkey)
T2 construct: ECD anchored on the surface of stably transfected HEK293 cells; also called cynoCD123 SP1 cells; cynoCD123 cells
T2 chain: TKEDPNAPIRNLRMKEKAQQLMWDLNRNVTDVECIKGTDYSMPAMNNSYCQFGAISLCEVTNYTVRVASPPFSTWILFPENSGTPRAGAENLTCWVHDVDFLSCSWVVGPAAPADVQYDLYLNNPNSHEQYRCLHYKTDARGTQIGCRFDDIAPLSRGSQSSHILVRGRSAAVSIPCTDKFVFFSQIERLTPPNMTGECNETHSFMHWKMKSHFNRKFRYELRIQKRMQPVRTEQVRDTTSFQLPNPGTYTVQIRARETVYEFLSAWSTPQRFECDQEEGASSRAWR

T3: Recombinant human CD123 SP2 ECD protein (human, UniProt P26951 101-303)
T3 construct: also called rhCD123 SP2; CD123 ECD SP2
T3 sequence: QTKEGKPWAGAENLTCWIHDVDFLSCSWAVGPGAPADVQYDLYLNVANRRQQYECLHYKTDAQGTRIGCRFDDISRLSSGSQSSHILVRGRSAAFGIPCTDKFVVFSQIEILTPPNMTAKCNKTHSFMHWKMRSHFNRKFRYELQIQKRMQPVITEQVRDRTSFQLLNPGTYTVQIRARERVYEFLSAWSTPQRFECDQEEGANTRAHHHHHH

T4: Recombinant human CD123 SP1 ECD-His tag protein (human, UniProt P26951 20-305)
T4 construct: bought from R&D Systems (#301-R3/CF); biotinylated for some assays; also called rhCD123 SP1; huCD123 ECD SP1
T4 sequence: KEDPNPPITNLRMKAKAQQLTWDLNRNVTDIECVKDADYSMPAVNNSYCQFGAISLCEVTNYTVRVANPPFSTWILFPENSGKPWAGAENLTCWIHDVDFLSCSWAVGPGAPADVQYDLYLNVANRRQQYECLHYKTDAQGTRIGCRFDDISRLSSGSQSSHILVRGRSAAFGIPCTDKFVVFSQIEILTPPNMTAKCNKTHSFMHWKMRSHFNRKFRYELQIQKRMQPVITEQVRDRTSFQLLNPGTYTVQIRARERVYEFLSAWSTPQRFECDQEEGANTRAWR

B1: CD123 null 4 (bispecific antibody, human IgG4 S228P, lambda, F234A L235A)
heavy: EVQLVESGGGLVQPGGSLKLSCAASGFTFNTYAMNWVRQASGKGLEWVGRIRSKYNAYATYYAASVKGRFTISRDDSKNTAYLQMNSLKTEDTAVYYCTRHGNFGNSYVSWFAYWGQGTLVTVSSASTKGPSVFPLAPCSRSTSESTAALGCLVKDYFPEPVTVSWNSGALTSGVHTFPAVLQSSGLYSLSSVVTVPSSSLGTKTYTCNVDHKPSNTKVDKRVESKYGPPCPPCPAPEAAGGPSVFLFPPKPKDTLMISRTPEVTCVVVDVSQEDPEVQFNWYVDGVEVHNAKTKPREEQFNSTYRVVSVLTVLHQDWLNGKEYKCKVSNKGLPSSIEKTISKAKGQPREPQVYTLPPSQEEMTKNQVSLTCLVKGFYPSDIAVEWESNGQPENNYKTTPPVLDSDGSFLLYSKLTVDKSRWQEGNVFSCSVMHEALHNHYTQKSLSLSLGK
light: QAVVTQEPSLTVSPGGTVTLTCRSSTGAVTTSNYANWVQQKPGQAPRGLIGGTNKRAPGTPARFSGSLLGGKAALTLSGAQPEDEAEYYCALWYSNLWVFGGGTKLTVLGQPKAAPSVTLFPPSSEELQANKATLVCLISDFYPGAVTVAWKADSSPVKAGVETTTPSKQSNNKYAASSYLSLTPEQWKSHRSYSCQVTHEGSTVEKTVAPTECS
VH: not shown
VL: not shown
notes: also called B21M IgG4 x CD3B220
B2: I3RB24 (antibody, IgG1, V domains shown)
VH: QVQLVQSGAEVKKPGSSVKVSCKASGGTFSSYAISWVRQAPGQGLEWMGGIIPIFGTANYAQKFQGRVTITADESTSTAYMELSSLRSEDTAVYYCARHTDAWGYRLDYWGQGTLVTVSS
VL: not shown
notes: IgG1
B3: I3RB12 (antibody, IgG1, V domains shown)
VH: B2 VH with H99A, T100D, D101R, A102V, G104D, R106Y
VL: not shown
notes: IgG1
B4: I3RB29 (antibody, IgG1, V domains shown)
VH: B2 VH with H99D, T100S, D101R, A102I, G104S, Y105F, R106S
VL: DIQMTQSPSSLSASVGDRVTITCRASQSIGEWLNWYQQKPGKAPKLLIYAASSLQSGVPSRFSGSGSGTDFTLTISSLQPEDFATYYCQQYYHFPLTFGQGTKVEIK
notes: IgG1
B5: I3RB7 (antibody, IgG1, V domains shown)
VH: QVQLVQSGAEVKKPGSSVKVSCKASGGTFSSYAISWVRQAPGQGLEWMGGIIPIFGTANYAQKFQGRVTITADESTSTAYMELSSLRSEDTAVYYCARGKRWLADAGDFDYWGQGTLVTVSS
VL: not shown
notes: IgG1; also called I3RB07
B6: I3RB34 (antibody, IgG1, V domains shown)
VH: QVQLVQSGAEVKKPGSSVKVSCKASGGTFSSYAISWVRQAPGQGLEWMGGIIPIFGTANYAQKFQGRVTITADESTSTAYMELSSLRSEDTAVYYCARGWSYYRLDYWGQGTLVTVSS
VL: EIVLTQSPATLSLSPGERATLSCRASQSVDKWLAWYQQKPGQAPRLLIYYASNRATGIPARFSGSGSGTDFTLTISSLEPEDFAVYYCQQFDRAPFTFGQGTKVEIK
notes: IgG1; also called 13RB34
B7: I3RB22 (antibody, IgG1, V domains shown)
VH: B5 VH with G99N, K100L, R101F, W102Y, L103W, A106S, G107V, D108Y, F109L
VL: B6 VL with D30N, F91G, D92I, R93D, A94W, F96R
notes: IgG1
B8: I3RB11 (antibody, IgG1, V domains shown)
VH: QVQLVQSGAEVKKPGSSVKVSCKASGGTFSSYGISWVRQAPGQGLEWMGGIIPIFGTANYAQKFQGRVTITADESTSTAYMELSSLRSEDTAVYYCARDLFSWRYSNFDYWGQGTLVTVSS
VL: not shown
notes: IgG1
B9: I3RB6 (antibody, IgG1, V domains shown)
VH: B8 VH with G33A, D99G, S102N, R104S, Y105N, S106V, N107A, F108L
VL: not shown
notes: IgG1; also called I3RB06
B10: I3RB38 (antibody, IgG1, V domains shown)
VH: B8 VH with F101M, S102I, Y105F, S106E
VL: not shown
notes: IgG1

How the values were obtained:
[1] = target: T5, cell-surface CD3 epsilon on primary cynomolgus T cells (cynomolgus monkey, UniProt Q95LI5 22-198); test: flow cytometry competition with labeled CD3B146 on T cells
T5 construct: whole, on cells; also called cynomolgus CD3e; Cyno T-cells
Excerpt: (§1) The format involved competition binding using a fixed concentration of labeled anti-CD3 mAb of known affinity and increasing concentrations of unlabeled test Abs (Ashkenazi A et al. PNAS: 88:10535, 1991.).

[2] = target: T6, cell-surface CD3 epsilon on primary human T cells (human, UniProt P07766 23-207); test: as above
T6 construct: whole, on cells; part of the CD3/TCR complex on the cells
Excerpt: as §1

[3] = target: T1, human CD123 SP2 ECD displayed on …; test: MSD cell binding on 293F pDisplay cells; fold change over background; parental 293F cells as control
Method: (§2) The object of the screening assay was to identify antibodies that bound to cells expressing hCD123 SP1 and SP2 as well as cross reactivity with cells expressing cynoCD123 SP1.
(§3) Cells were immobilized and phages were assayed in triplicate. […] 5000 cells per well were plated into a 384 well plate (MA6000, cat. L21XB, MSD) and allowed to adhere for 2 hr. Cells were then blocked with 20% FBS in PBS (Gibco) for 15 mins. Antibody supernatants were then added and left at RT for 1 hr. Cells were washed 3 times with PBS and a ruthenium labeled secondary antibody (Jackson Immuno Research) was then added at 1 μg/mL and incubated for 1 hr at room temperature. A further washing step was then applied and 35 μL per well of MSD Read buffer T (surfactant free) was then added and incubated for 30 min for detection. Plates were then read using Sector Imager 2400 (MSD). Data was normalized to controls and graphed using GraphPad Prism Version 5. A positive binder was determined to be a hit with a signal 3× greater than background (FIGS. 2A, B and C).

[4] = target: T2, cyno CD123 ECD displayed on …; test: as above
Method: as §2, §3

[5] = target: T3, Recombinant human CD123 SP2 ECD protein; test: SPR ProteOn, captured mAb
Method: (§4) The biosensor surface was prepared by covalently coupling Goat anti-Human IgG (Fc) to the surface of a GLC chip (BioRad) using the manufacturer instructions for amine-coupling chemistry. […] The RU immobilized also included a goat anti-mouse Fc antibody that was added to capture other antibodies not included in the ones reported here. Since the mixture was 1:1 about 50% of these RU immobilized are expected to be goat anti-human Fc. The kinetic experiments were performed at 25° C. in running buffer (PBS pH 7.4, 0.005% P20, 3 mM EDTA). […] The reference spots (Goat anti-Human IgG (Fc)-modified surface) containing no candidate captured were used as a reference surface. Capture of mAb was followed by 3 min injection (association phase) of antigen at 40 μL/min, followed by 10 min of buffer flow (dissociation phase). […] Data was processed on the instrument software. Double reference subtraction of the data was performed by subtracting the curves generated by buffer injection from the reference-subtracted curves for analyte injections. Kinetic analysis of the data was performed using 1:1 Langmuir binding model with group fit. The result for each mAb was reported in the format of Kₐ (kon or on-rate), Kd (koff or off-rate), KD (Equilibrium dissociation constant) (Table 5).

[6] = target: T4, Recombinant human CD123 SP1 ECD-His tag …; test: SPR ProteOn, captured mAb
Method: as §4

T6 sequence (P07766 23-207): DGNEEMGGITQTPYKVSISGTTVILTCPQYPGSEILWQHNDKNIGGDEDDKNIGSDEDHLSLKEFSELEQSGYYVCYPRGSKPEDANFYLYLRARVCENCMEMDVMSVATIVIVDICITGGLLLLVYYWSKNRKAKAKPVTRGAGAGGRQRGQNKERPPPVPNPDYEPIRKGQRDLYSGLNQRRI
T5 sequence (Q95LI5 22-198): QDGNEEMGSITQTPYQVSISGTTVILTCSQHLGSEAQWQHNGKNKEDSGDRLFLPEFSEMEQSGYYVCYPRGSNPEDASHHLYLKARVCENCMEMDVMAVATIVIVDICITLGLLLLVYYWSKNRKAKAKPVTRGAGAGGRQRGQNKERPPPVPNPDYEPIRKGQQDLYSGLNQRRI

Binder | Kd [1] | Kd [2] | binding result [3] | binding result [4] | binding result [5] | Kd [6] | koff [6] | kon [6]
B1 | 36.8 nM | 48.6 nM |  |  |  |  |  | 
B2 |  |  | no binding (tested: 10 µg/mL) | no binding (tested: 10 µg/mL) | no binding (tested: 400 nM) | 201 nM | 0.226 s⁻¹ | 1.13e+06 M⁻¹ s⁻¹
B3 |  |  | no binding (tested: 10 µg/mL) | no binding (tested: 10 µg/mL) | no binding (tested: 400 nM) | 9.61 nM | 0.0078 s⁻¹ | 812000 M⁻¹ s⁻¹
B4 |  |  | no binding (tested: 10 µg/mL) |  | no binding (tested: 400 nM) | 5.9 nM | 0.00132 s⁻¹ | 224000 M⁻¹ s⁻¹
B5 |  |  | no binding (tested: 10 µg/mL) |  | no binding (tested: 400 nM) | 15.4 nM | 0.0147 s⁻¹ | 954000 M⁻¹ s⁻¹
B6 |  |  | no binding (tested: 10 µg/mL) | binds | no binding (tested: 400 nM) | 56.8 nM | 0.0283 s⁻¹ | 497000 M⁻¹ s⁻¹
B7 |  |  | no binding (tested: 10 µg/mL) | no binding (tested: 10 µg/mL) | no binding (tested: 400 nM) | 4.12 nM | 0.00106 s⁻¹ | 257000 M⁻¹ s⁻¹
B8 |  |  | no binding (tested: 10 µg/mL) | no binding (tested: 10 µg/mL) | no binding (tested: 400 nM) | 2.89 nM | 0.00253 s⁻¹ | 874000 M⁻¹ s⁻¹
B9 |  |  | no binding (tested: 10 µg/mL) | no binding (tested: 10 µg/mL) | no binding (tested: 400 nM) | 11.5 nM | 0.00593 s⁻¹ | 514000 M⁻¹ s⁻¹
B10 |  |  | no binding (tested: 10 µg/mL) |  | no binding (tested: 400 nM) | 0.49 nM | 0.000434 s⁻¹ | 888000 M⁻¹ s⁻¹

Reference: US20160068605A1 (Janssen / Centocor, published 2016)
